# Experimental data published in patent EP4722251.
# Assays:
# Human TFPI/His = assay: ELISA; fit not_stated; antibody as IgG; antigen as monomer; on the surface: target; avidity possible
# [1] = target: Recombinant human TFPI protein; assay: BLI; fit kinetic; antibody as IgG; antigen as not_told; on the surface: binder; avidity not_told; conditions: 30.0 °C; for koff: pH 7.4
EC50 (Human TFPI/His; pH 4.0) [ng/mL],EC50 (Human TFPI/His; pH 4.5) [ng/mL],EC50 (Human TFPI/His; pH 5.0) [ng/mL],EC50 (Human TFPI/His; pH 5.5) [ng/mL],EC50 (Human TFPI/His; pH 6.0) [ng/mL],EC50 (Human TFPI/His; pH 6.5) [ng/mL],EC50 (Human TFPI/His; pH 7.4) [ng/mL],"Koff Ratio (pH6.0/pH7.4) ([1]; pH 6.0, second pH 7.4)",koff [1] [s⁻¹],koff ([1]; second pH 6.0) [s⁻¹],Substance
5.87,3.15,3.97,2.18,3.19,3.87,4.01,–,–,–,Marstacimab
16.5,4.94,4.83,5,6.1,4.9,4.25,0.9,4.01e-07,3.6e-07,Concizumab
